In a protein production outcome set (Wang et al. 2014) one finds protein production data, which are given here for nine sequences.

The data set is described as follows: label from the status in PepcDB records.

“MQGQWGYVAISFIIGIAIAFSSSVIWLTCCLVLNVFFCLYRTPRKTFFYCMIACLSGAMYTTYVQGQNNPLGDSYEATRGVIHNTPLINGDRLSFQVEDQNKNIVQLSYKMKSALEKKQMRQLHAGVSCVFEGERKEPQIARNFHGFNYRDYLYKQNIHFILDATYISECHKTSLSLVQWILLLRQQAISEVAEMFPEQSGAFMNALVFGDRQQMTFEVEEQYQQFGLVHLLAISGSHIVLLMVIVYFILLRSGVTREVATVCLIFCIPLYMILAGASPSVIRASITGVFMLIAFMCSIRLSSLDALSITAICMLIFDPYLVFNIGFQFSFVGSFALLLSTPLLLESGNGVIRNSIYISFISQLVSTPILLYHFGYFSPYSIFLNILYVPFLSLVVLSCSIVILICIPVIPFLAKRLANVLSIGLNLSNDFLSYCENLPFTRLNFGQTSILLVALYCVSIISILMVWERRMAKGILFISAGVFLFISTCHYVYPYFRESGSVTFLDVGQGDAILIRLPYDQEIYLIDTGGTILPNKEEWQRKKHEFSVGNDILIPYLQKEGIKKIDKLIITHGDADHIGAAQQLLSNITVKEVVFGRKEQDAELEKIVKKQALEKKVKIREVREGESWSINGAEFFVLAPTGKESSENNASIVMLAKLGGLTWLFTGDLEEEGEKFLVATYPELRADVLKVAHHGSNTSSTTPFLSVVQPNIAVISVGERNRYGHPHKDVIERFEKRGIEIWRTDKQGAISYVFKGENGTFRSKITYDETHNR”: the protein production entry was “failed”.
Turning to “MQHRQLWYRGGLGLALALVVVGYRGSRTVIRAVPRAQLSVDQKMPSTSSVFSASKLTLQDEANNSAPQVSPEAQESSGPDKQSDLTSGSSTSSSGISSGNSSGSTILENAKNNQTSETATTKAAEMVNGTVKMTLDTNGTLHLSGGSFGASLGSATGSWIVKTLTANGYQPTQVSKIVIDGKITATTMTNYSYLFANLPNVTAIDGLANLNLTGVTDISWLFLNCSQLGALDLNSWDVSSVIRMEGTFQNCAKLVTLNVANWNTDSLQYLIDTFNGDSSLTSLPVGKWNTSKVATMMRTFTDCSSLTSLDIANWDTRVVTNMSAIFRGMSKVKSLPIDKWQTGRVVNMQLVFSGDTSLESINVANWDTSRATALDGTFAKLPNIKSLPLDNWNTSNVQTIRSTFYGDTNLTQLPIDNWNVGKVFDFNSTFSGCASLTTAPVANWNTQSATNLGYTFEGMTSLTSLPVDNWQTGTVTNMAGTFSGVSQLKSLPISKWNTKNVQNMAGTFSKMSSVTALPVDNWQTGNVTTMRGIFTKVSQVKNLPVGKWNTAKVVDMGQVFYGNPQLTSLPIENWNTSSATDFSQLFAEDSGLQTLSLGAWNTTKVTNFESVFQNTSLDKLDLTGWNTNSAQTYTNAFSSKLPPKRLLLGPSFNFFKSESWHLPNPSSEAPYIGKWRSLNNKKVYTSADLMTKYDGKTIVGEFEWATGNTITVKYVDAAGKYLAPDTKISGATGDAYHIKPIEIQGYVPDQPDGVQGNFTDKDETITLMYNPGGLMFVSAPQTINFGQNPITGKSENYGASYDTGLVIQDGRSIGSTWSLNATLSASGFTSKQSGRPLAAVLSYKDQQTGGGSILTPGVARLIVNNHQTVSNQGVNILGQKTALGALSLQVPTDRALTDTYQATVTWTLNQGVPNR”, the protein production entry is recorded as “failed”.
The value for “MQIGLEAGLTNQLIDEIDQQPGHLPLLEFALTQLWSKQQNRLLTHQAYQEIGGVEEALANHAEAVYAQLTEADRQRAQQIFIQLVRLGDDTEATRRLTTREEVRLENWDLVTRLASSRLVVTNRNESTAEETVEIVHEALIRSWGRLEQWLIVDGDFLRWREQLRLAIRLWENSGHDQGVLLRGKALIDAQEWQLQRAQELNTNEIRFINKSGELRELEVKQQQRIRKIGISSLVTGLILALGLAGVAWLQGQKARMSETKAISSSAESFLNANLEFDGLIASIRAGRRIKGTDGIDANTRTQITETLQQSINFVREKNRLAEHDGMLESVSFSPDSKFIATASRDKTVKIWSLDGKKQLVVLREEKGEGFNSVAFSPDGTLMATGSWDNTAKIWSREGKRLHTLDGHKEAVLEVAFSPDSQLLATASWDNTVKLWSREGKLLHTLEGHKDKVNSITFSPDGQLIATVGWDNTMKLWNLDGKELRTFRGHQDMIWSVSFSPDGKQIATASGDRTVKLWSLDGKELQTLRGHQNGVNSVTFSPDGKLIATASGDRTVKLWNSKGQELETLYGHTDAVNSVAFSPDGTSIATAGNDKTAKIWKLNSPNSIIVRGHEDEVFDLVFSPNGKYIATASWDKTAKLWSIVGDKLQELRTFNGHQGRVNKLSFSPDGKYIATTSWDKTAKLWNLDGTLQKTLTGHKDTVWSVNFSPDGQLIATASEDKTVKLWNRDGELLKTLPRQSSVVNSAVFSPDGKLIATAGWDKTVKIWSIDGRLQKTLTGHTSGINSVTFSPDGKLIASASWDNTVKIWNLDGKELRTLRGHKNVVHNVTFSPDGKLIATASGDNTVKIWNINGQELRTLRGYKDAVWSLRFSLDGKTLATGSRYDIVVWHLYLDDLDQLLVRGCDWARDYLQNNPNVNPDEKSLCDGIRPIAQQ” was “failed”; that for “MQINLSDLHLLRPLWLLLIIPGALLPWLWQRRHDLLARLRGTIAPHLLTHLLVTPQDSQRLRPVHLLSALLVLGALAAAGPTWEQDRPDFLHNRAPLIIALDLSPSMNASDLPPSRLEAAKHKLQQLVQQRRGARTGLIAYAGSAHLVLPASDDPALLDSFIQALGSDLIQRPGKDVLGVIRQAQRLLQAEHSPGSLLLISDGADTSQLAAIKQQLAGSPLQVLILAAGSSDGGIIRDASGQPLTDSDGRPQLGRFDSAALKQLAAASDAPLGSLTLNDDDLDWVQLHAQQHFTAASAPDRQLQWKDAGYWLCWPLLLLAFCCVRRGWSLNWLGALLLGLGLSLQAPTARANTLADAFFSADQQGRWAFEHGHYPAAAALFTDPYWKGIAAYKAADFDLALASFARLDSAAAYFYLGNIHVRRFKFDEAIAAYQQALKLQPRFAEASANLALAQALKKDTESAQQNAPEVKPDAIKFDKPAGKGQNKKVETQEAASDELWLQNLSTSPAAFLRQKFSLQDLDNTTPQVTP” was “failed”.
The entry for “MQIVGSVALMLWGIRLVRTGFIRAFGGSLRHYLGLAISGRLTSFGVGLAITVFLQSSTATALIISSFASKGLVQTPAALAVMLGADVGTSISAQILSFNLSWLAYAAILIGFFLHGRGGRFATRQIGRAIVGLGMVLLALSLIRMSSQPLREADGLAYVLSALEGEVLLTLFLMAVLTWLVHSSLAVVLLTASLASAGIVPTGTGLVMILGANIGGTIPPIIATLSTGPQSQHAALGNAGFKLLASLLVLPFLPWVGERLQSFGGDAQVLVNFHLTFNLLVATLFLPWVQTAAALLARVFPDTGAGAVEPVTKYLDKELITSPALALTSATRELYRVNERIEDSLALLSGGIAARDQVDVQGAQENRARVAAMLEEFKFYLTDITREEISESDSAKAMNLLLIATNLGHVSELVTNAVELTASTSHEQIRFSEAGTAELLEMLELIHQGIRLALSAALLGDAKVRKTLQKGRKELERMVDESRQAHFSRLAEGTLSSISTTSLHNELLRDFSRIYYHIYTASKIGGRDSSVMIRG” is “failed”.
As to “MQKEKAPIGLYFLLIAVMASWGFNVTMTKVLVSYFPTVTMTSFRIFTAAITVIIILFITKKLRLPTKREFGLIFLASIFNIVIHHFFLSNGLKLTTGTNAGLILGSAPIVVAIFSVVFLRERIGAWRALGFLAGIFGVSLVVLSNGTGISGISLGDIDIFIAMASQAFSFIIIKKLAGSMDTGLMTGYMLFLGSVMLFALSRFMEPGGVSELVAVHSWKLWLLFVVSAVVATAFGNFVYNYAVGKIGPSRSAIFMNFNPLFSLIGALLFLGEAIKIPQLVGFVFIIIGVLLGSGALMDLIYERKKTKVRDPEKLLEKEV”, the protein production entry is recorded as “failed”.
The entry for “MQKFIRDFTLPAAFAGFVTFLIGISVSSVLVIQAAQILGANTPQITSWFWALGIGIGLSGLILSWKFKYPVATSWSTAGLALIIATGSGYSLHEAIGAFLLCGLLTALLGFFGVFQKALAYIPQSLTSAMLAGVLLKFGIAIFGNMQDHWQFIISLLAVYIVSKRLWPRYCIVITVIAGVMICPFFMEFHLPTLHWELAKPEWITPHFTGSAILGLALPLFVINMASQYLPGIAMIKSYGYNPNVNQLIGWTGATQTLLAPFGCYTVNIAAISAAVSLDDQVHPDPAKRYIAGISCGFFYILMGLFAATLTSLLMSFPSLFIVALAGIALFGTISHNIAIAFQEPTDREAALLTFLCSASGIQFFGIGSAFWGLIVGVIVSMVLKTKFKKS” is “failed”; for “MQKGKDLTLRLMIVDDSVESAETIVTALRNGGIAVRPSRPQSQEELASMLSGQIDLAILGQAQQIPMSALQTQIAGSGKDIPILLLAERIEENALVEAASHGVRAIALRHRPAHLLALVRSEWDDLQARRGLRRIEAQMRETERRCDALIASSRDPIAYVHEGMHIRANDAYLEMFGFESFDDVEGISLLDMIAAQYVDDFKQLLKAMSKGEPPPAQYKLDARRVEGDTFPATMEFATATYEGEPCIQVVFRRREEFDPELAREVEDLRQRDQVTGLLNRPTFMVALEQAVAQAGRSEGQSGFLLIEPDHYARILPEFGLDSADALIAALAAHVASVLDDSVLAARFGEHSFALLLNGNYARTHALAETVRNAFAQHVFSVGTRSATVTVSIGGVQIGEKIASIGQVLNRGTEAVRTTAELGGNAVSIYDPAAADRAEEERIERWVEQLREALVGDGFLLHYQPVLNLQGEPLELYQAFLRLERNGEMMSPNAFMAIAEEHDLVTEIDRWVVARAIRQLGERQRAGHKTHLLVRIGPNSFSDPQMIDTIREQLAVYGVPGERLWLQTPESKVFTHLRNAQQFLAAVSAMDCKVGLEQFGSGLDSFQLLAHFHPAFLKLDRGITGDIASARDSQEKIREITSRAQPAGILTMAEFVADAQSMSSFFSAGVDYVQGDFVAPTGPLMNYEFG” it is “failed”.
The entry for “MQKGNIRIAIDKGGTFTDCVGNIGTGKQEHDTVIKLLSVDPKNYPDAPLEGIRRLLEVLEHKTIPRGIPLDISNVRSLRMGTTLATNCALERNGERCAFITTKGFKDSLLIGDQTRPDIFNLNIKKVVPLYDTVVEIDERVTLEDFSEDPYFTKSSPNEQEGILEGNSGEMVRVIKKPDESSVRSILKVLYASGIKSIAIAFLHSYTFPDHERIVGNIAREIGFSHVSLSSEVSPMIKFLPRAHSSVADAYLTPVIKKYLNSISAGLSHAEDTHIQFMQSDGGLVDGGKFSGLKSILSGPAGGVIGYSSTCYDKNNNIPLIGFDMGGTSTDVSRYGDGRLEHVFETVTAGIIIQSPQLDIHTVAAGGSSILSWKNGLFRVGPDSAAADPGPAAYRKGGPLTITDANLFLGRLVPEFFPKIFGPNEDESLDLETTTLKFRELTDVINKDLNSNLTMEEVAYGFIKVANECMARPVRAITEAKGHVVSQHRLVSFGGAGGQHAIAVADSLGIDTVLIHRYSSILSAYGIFLADVIEENQEPCSFILGEPETILKVKKRFLELSKNSIKNLLSQSFSREDIVLERYLNLRYEGTETSLMILQKYDDQWNFREWFSEAHKKEFGFSFDDKRIIIDDIRIRAIGKSGVRKEKTVDEQLIEISHFKKADVSKDASFTQKAYFDNKWVDTAVFKIDDLPAGTIIEGPAILADGTQTNIILPNSQATILNSHIFIKINQKAAKTLSKSGYELDIDPILLSIFSHRFMDIALQMGTQLRKTSVSTNVKERLDFSCALFDSKGNLVANAPHVPVHLGSMSTCISAQAKLWEGKLKPGDVLITNHPDIGGTHLPDITVITPSFSSTGELIFYVASRAHHADIGGILPGSVPPNSKELYEEGTAIYSELVVKEGIFQEELIYKLFVEDPGKYPGCSGSRRFSDNISDLKAQVAANTKGIQLIGSLTKEYDLATILKYMAAIQTNASESIKKMLAKMVEHFGTTKFSGEDRLDDGSLIKLQVIIRPEKEEYIFNFDGTSPQVYGNLNAPEAITNSAILYCLRCLVGEDIPLNQGCLKPLTIKIPAGSLLSPRSGAAVVGGNVLTSQRVTDVILKTFNVMADSQGDCNNFTFGTGGNSGNKTDKQIKGFGYYETICGGSGAGADSWRGSGWNGSDAVHTNMTNTRMTDTEVFERRYPVLLKEFSIRRGSGGKGKYTGGNGVVRDVQFRKAVTASILSERRVIGPHGIKGGQDGSRGENLWVRHSTGALINVGGKNTIYAQPGDRFIIKTPGGGGFGQYKD” is “failed”.
